± gives the half width of the 95% confidence interval.

Data set [1] in a line: folding stability dG unfold from trypsin proteolysis; higher = more stable. In short, it runs like this:
(§1)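 Bayesian fitting of sequencing counts gave K50 for each design. Unfolding free energy followed by setting this against a sequence-predicted unfolded-state K50 and a shared folded-state K50, either per protease or with trypsin and chymotrypsin combined. The designs, under 80 residues and lacking cysteine, were digested in a PA-tagged cDNA display format at 11 threefold-diluted protease concentrations and without protease, and only those with AlphaFold2 dimer inter-PAE above 15 were kept.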

A short description of data set [2]: folding stability dG unfold from chymotrypsin proteolysis; higher = more stable. The method, boiled down: as §1
Data set [3] in a line: folding stability dG unfold (combined trypsin and chymotrypsin); higher = more stable. The method, boiled down: as §1

“SSSMPVTVEIEAKKLSNGKYLAKITVKDANGNELEEYEKEMDESEVEKLKEELKKKYPNMKVTMTYKDELSA [r9_374_JUSTAS]”: the “folding stability dG unfold” value amounted to 3.3 ± 0.34 kcal/mol in data set [1], 4.17 ± 0.14 kcal/mol in data set [2] and 4.17 ± 0.45 kcal/mol in data set [3].
Take “SSSPLPSPVTLPNGTVVYYFPDTGLVLTLDPKTGTGTVTYVTTDPQGNPTFFPSTVTFDPPTGKVVEVVASA [r9_122_JUSTAS]”: the results for the “folding stability dG unfold” value in data set [1], in data set [2] and in data set [3] were 0.904 ± 0.058 kcal/mol, 2.77 ± 0.033 kcal/mol and 2.39 ± 0.079 kcal/mol, respectively.
Take “SSSVTRTYTVTLPGSTVSIEITEKPNPEGSTTVTITVTTTKPGGGSTTTTVTKNITGLTLEDILKEAISSSA [r9_217_JUSTAS]”: the “folding stability dG unfold” value in data set [1] amounted to 3.38 ± 0.092 kcal/mol; in data set [2] it was 3.68 ± 0.05 kcal/mol; in data set [3], 3.57 ± 0.057 kcal/mol.
For the sequence “SSVEELSPEQRREQLRELLRQIREARREGDPEEERRLLEELRRLIEQLPDEEREEVRRLLEELGLPVEELSA [r9_182_TrROS_Hall]”, the “folding stability dG unfold” value in data set [1] was 4.27 ± 0.21 kcal/mol; in data set [2] it was 3.72 ± 0.19 kcal/mol; in data set [3] it was 4.05 ± 0.19 kcal/mol.
For the sequence “SSVEIKLYYDPVTNKYYVEITITAPPGDPAAVEARAAAVREEVKEALKAKGLVPDEIKVTVNVVSPAVPGSA [r9_117_JUSTAS]”, the “folding stability dG unfold” value amounted to 4.09 ± 0.15 kcal/mol in data set [1], 4.27 ± 0.21 kcal/mol in data set [2] and 4.37 ± 0.21 kcal/mol in data set [3].
Taken in the same sequence, the figures for “SSVTLTLTAPLPDNTTVTVEVTLTPLPEKGLVVANPTVTVTTLTPDADGNLTTSSAPATFTVVVPPELAFSA [r9_1137_TrMRF]” were 1.48 ± 0.061 kcal/mol, 2.1 ± 0.11 kcal/mol and 1.86 ± 0.11 kcal/mol.
For “STAEELATYIAKTIQKRFPPGYRITDVRIERNPNGYVELPFTIEPPNGRPWTVEIWIDADNGEIEIEIQWSA [r9_219_TrROS]” the same measures were 2.47 ± 0.06 kcal/mol, 3.183 ± 0.017 kcal/mol and 2.92 ± 0.068 kcal/mol.
As to “STMTLKELKERFPGFPPEMIEEIAERAENDPPGEEVEIYIRFPNGYPIYITVTKPDTVTIQFIPPGEPVYSA [r9_1024_TrROS]”, the “folding stability dG unfold” value is 1.23 ± 0.089 kcal/mol in data set [1], 1.01 ± 0.22 kcal/mol in data set [2] and 1.24 ± 0.26 kcal/mol in data set [3].
As for “SVEEFRELLPDAVIEAEPLSPDRLLIRLYVPEDPEKLNPLAERVRELAEEIERETGLPVLIEIIPVPPESSA [r9_1099_TrMRF]”, the “folding stability dG unfold” value in data set [1] worked out at 1.53 ± 0.033 kcal/mol; in data set [2], 1.27 ± 0.014 kcal/mol; in data set [3], 1.41 ± 0.028 kcal/mol.
Regarding “SVKTSSSMAPPDRIVLKITDPETDKVTTITVPLDLPEDEPVAVHDPEAPSERTVAEIKALAEAGKSVSGLSA [r9_250_JUSTAS]”, the “folding stability dG unfold” value is -0.176 ± 0.16 kcal/mol in data set [1], -0.55 ± 0.35 kcal/mol in data set [2] and -0.142 ± 0.18 kcal/mol in data set [3].
Consider “SVPIALPGVPPGFSLEEVAALITEKIKALGYTLKDIKVTPHPDNTVTITITVEKGEKTVKKVTTEINPPVSA [r9_953_JUSTAS]”, for which the “folding stability dG unfold” value amounted to 1.56 ± 0.15 kcal/mol in data set [1], 2.95 ± 0.097 kcal/mol in data set [2] and 2.56 ± 0.36 kcal/mol in data set [3].
Regarding “SVRIHGPDGQWFPVDDIEFDPNNNKFTFKFPGGKHKFPLPPGWQIEIDKDNAWIRVRPMPPPPPEDKEAKSA [r9_551_TrROS]”, the “folding stability dG unfold” value in data set [1] is 2.88 ± 0.24 kcal/mol; in data set [2], 2.25 ± 0.061 kcal/mol; in data set [3], 2.68 ± 0.34 kcal/mol.
Taken in the same sequence, the figures for “SVSSKISKVVSETVEDDKRTVTIEVNVPSPVVEIYDSSGKVIKTVPLGKKTTITVTTDPKGTSVSVKVLNSA [r9_917_JUSTAS]” were 0.46 ± 0.12 kcal/mol, 0.967 ± 0.044 kcal/mol and 0.697 ± 0.11 kcal/mol.
Take “SVTITKDGNKITVTLSVNGPFTLQVNKESSTSSFSVPADESATLTIDVPNTTYKVVVEKPGQPVSTYDLLSA [r9_411_JUSTAS]”: the figures for the “folding stability dG unfold” value in data set [1], in data set [2] and in data set [3] were 1.8 ± 0.12 kcal/mol, 2.08 ± 0.17 kcal/mol and 1.97 ± 0.23 kcal/mol, respectively.
Taken in the same sequence, the figures for “SVTRDPDGKITVDVDVRRTPDGFYYVEVKLQLKDGKPIFPVPAPVKNPEDGVKRMKEFAETFAKEFLKKWSA [r9_739_TrROS]” were 1.35 ± 0.058 kcal/mol, 2.42 ± 0.087 kcal/mol and 2.04 ± 0.15 kcal/mol.
In the case of “SVVRLPNGEWFEVDGRLVRVTVDEETGEIVDVEVYEVTVEEPPPPPPPLEVTVTVEPDAPPGATITITVTSA [r9_90_TrROS_Hall]”, the “folding stability dG unfold” value in data set [1] came out at 1.8 ± 0.13 kcal/mol; in data set [2] it was 1.48 ± 0.12 kcal/mol; in data set [3] it was 1.5 ± 0.27 kcal/mol.
With “SWIPVKEIAKYIAREFGMPKENLDNIEEVDPITVHPNPDGWVQVEATIRFRNPRNGKGHEMRIEIHVPKKSA [r9_230_TrROS]”, the “folding stability dG unfold” value was found to be 1.66 ± 0.024 kcal/mol in data set [1], 2.22 ± 0.11 kcal/mol in data set [2] and 1.96 ± 0.09 kcal/mol in data set [3].
As to “SWKIEIPVLVKVDPGETMDEMKDQVVEIADMIAKYMQKQGGPIEVDVDVTPDPEEGYIFVTVEIEVPPGASA [r9_1161_TrROS]”, the “folding stability dG unfold” value in data set [1] is 1.03 ± 0.13 kcal/mol; in data set [2], 2.9 ± 0.13 kcal/mol; in data set [3], 2.39 ± 0.29 kcal/mol.
